{
  "source": "paper PMC6497099",
  "about": "“Structural basis for oligomerization of the prokaryotic peptide transporter PepTSo2” (Acta Crystallographica. Section F, Structural Biology …, 2019)",
  "proteins": {"B1": {"name": "PepTSo2 from Shewanella oneidensis, purified, His6 tag cleaved by TEV protease (natural protein, S. oneidensis)", "chain": "MTLGTNQVSKTHSFMTVSLIELWERFGYYGMQALIVYFMVQRLGFDDSRANLVWSACAALIYVSPAIGGWVGDKILGTKRTMLLGAGILSVGYALMTVPTENTWFMFSALGVIVVGNGLFKPNAGNLVRKIYEGDDSKIDSAFTIYYMAVNVGSTFSMLLTPWIKDYVNAQYGNEFGWHAAFAVCCVGILVGLGNYALMHKSLANYGSEPDTRPVNKKSLAIVLALAALSVVASAIILEYEDVARVFVYAAGVAVLGIFFHLIRTSEPSERAGLIAALILTVQTVFFFIFYQQMSTSLALFALRNVDWDFQVFGTHLWTWSPAQFQALNPIWIMVLSPVLAWSYSWAGRNNKDFSIAAKFALGFAVVAIGFFIYGFAGQFAVNGKTSSWVMIWGYASYSLGELLVSGLGLAMIARYVPARMGGFMMGAYFVASGISQYLGGVVANFASVPQDLVDPLQTLPVYTNLFNKLGVAAVVCTIIALAVLPLMRRLTESHHAHSSIENNAAASLRDVKAEQLESSGENLYFQ", "notes": "full-length PepTSo2, Shewanella oneidensis, UniProt Q8EHE6; Detergent-solubilised (DDM) for SEC; in Salipro nanoparticles (saposin A, DMPG) for cryo-EM; in monoolein lipidic cubic phase for crystals; also called tetrameric PepTSo2; purified PepTSo2; source: E. coli Rosetta 2 (DE3), purified (DDM solubilisation, Ni-NTA, TEV cleavage, second Ni-NTA, SEC); not shown: His6, C-terminal, cleaved"}, "B2": {"name": "C-terminally His6-tagged full-length PepTSo2 (tag kept, FSEC screening) (natural protein, S. oneidensis)", "chain": "MTLGTNQVSKTHSFMTVSLIELWERFGYYGMQALIVYFMVQRLGFDDSRANLVWSACAALIYVSPAIGGWVGDKILGTKRTMLLGAGILSVGYALMTVPTENTWFMFSALGVIVVGNGLFKPNAGNLVRKIYEGDDSKIDSAFTIYYMAVNVGSTFSMLLTPWIKDYVNAQYGNEFGWHAAFAVCCVGILVGLGNYALMHKSLANYGSEPDTRPVNKKSLAIVLALAALSVVASAIILEYEDVARVFVYAAGVAVLGIFFHLIRTSEPSERAGLIAALILTVQTVFFFIFYQQMSTSLALFALRNVDWDFQVFGTHLWTWSPAQFQALNPIWIMVLSPVLAWSYSWAGRNNKDFSIAAKFALGFAVVAIGFFIYGFAGQFAVNGKTSSWVMIWGYASYSLGELLVSGLGLAMIARYVPARMGGFMMGAYFVASGISQYLGGVVANFASVPQDLVDPLQTLPVYTNLFNKLGVAAVVCTIIALAVLPLMRRLTESHHAHSSIENNAAASLRDVKAEQLESSGENLYFQGQFTSSV", "notes": "full-length PepTSo2, Shewanella oneidensis, UniProt Q8EHE6; cloning artifact with the TEV protease site, between PepTSo2 and the His6 tag (not cleaved in this experiment); Detected in FSEC by the histidine tag-specific fluorescent probe P3NTA; also called His6-tagged PepTSo2; His6 construct; source: E. coli Rosetta 2 (DE3) or C41 (DE3) with pRARE, DDM-solubilised supernatant of disrupted cells; …"}},
  "key": {"[1]": {"molecular_target": "the molecule itself", "test": "SEC; purified PepTSo2 in DDM-containing buffer, Superose 6 Increase column, tryptophan fluorescence (excitation 280 nm, emission 350 nm)"}, "[2]": {"molecular_target": "the molecule itself", "test": "SEC; fluorescence-detection SEC (FSEC) of the DDM-solubilised supernatant of E. coli cells mixed with the His tag-specific probe P3NTA (excitation 482 nm, emission 520 nm)"}},
  "data": [
    {"protein": "B1", "values": [
      {"measurement": "stoichiometry N", "setting": "[1]", "value": 4}
    ]},
    {"protein": "B2", "values": [
      {"measurement": "stoichiometry N", "setting": "[2]", "value": 4}
    ]}
  ]
}
